The record followed here is publication PMC10284694, “Genome expansion by a CRISPR trimmer-integrase”.

Data set [1] concerns the target Megasphaera NM10-related Cas1 (Megasphaera NM10-related). In words: cryo-EM structure; 50 µM Cas1, 50 µM Cas2/DEDDh and 12.5 µM prespacer or half-site DNA mixed, dialysed 2 h at room temperature, purified over Superose 6 Increase 10/300 GL; complexes bound to DNA.
In data set [2] the target is Megasphaera NM10-related Cas2 and DEDDh fusion protein (Cas2/DEDDh) (Megasphaera NM10-related). Described as above.
For data set [3], the target named is T1, Cas1 (type I-E);Cas2/DEDDh (natural Cas2-DEDDh fusion) (Megasphaera NM10-related;Megasphaera …, UniProt A0AA82WPF9;A0AA82WPG7 1-316;1-289, |).
T1 sequence 1: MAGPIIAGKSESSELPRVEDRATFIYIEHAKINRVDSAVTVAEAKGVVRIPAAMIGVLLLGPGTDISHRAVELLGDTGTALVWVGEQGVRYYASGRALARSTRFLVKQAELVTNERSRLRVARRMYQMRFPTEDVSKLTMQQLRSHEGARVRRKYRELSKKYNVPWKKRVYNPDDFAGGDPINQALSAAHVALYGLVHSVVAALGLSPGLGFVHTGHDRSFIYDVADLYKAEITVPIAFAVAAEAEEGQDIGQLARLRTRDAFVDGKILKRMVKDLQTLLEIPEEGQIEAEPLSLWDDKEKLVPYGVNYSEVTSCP
T1 sequence 2: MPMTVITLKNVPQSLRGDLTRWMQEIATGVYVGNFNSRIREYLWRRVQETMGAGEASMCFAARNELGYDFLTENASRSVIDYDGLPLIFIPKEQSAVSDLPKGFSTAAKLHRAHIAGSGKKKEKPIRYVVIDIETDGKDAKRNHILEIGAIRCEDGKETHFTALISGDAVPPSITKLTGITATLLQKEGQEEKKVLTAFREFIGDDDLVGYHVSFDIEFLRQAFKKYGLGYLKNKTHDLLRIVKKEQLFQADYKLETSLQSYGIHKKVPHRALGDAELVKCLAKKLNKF
In words: cryo-EM structure (2.9 A); Cryo-EM sample buffer not in the material; DNA annealed in 20 mM HEPES pH 7.5, 25 mM KCl, 10 mM MgCl2; protein storage 20 mM HEPES pH 7.5, 500 mM KCl, 1 mM TCEP, 5% glycerol. The note with it: protein: recombinant;recombinant; tags: 10xHis-MBP removed with TEV;10xHis-MBP removed with TEV; chain copies: 4;2; 23 bp duplex, 3' overhangs 15 nt on both strands (5 nt visible).

Data set [4] has as its target T1, Cas1 (type I-E);Cas2/DEDDh (natural …). Description: cryo-EM structure (3.1 A); Cryo-EM sample buffer not in the material; DNA annealed in 20 mM HEPES pH 7.5, 25 mM KCl, 10 mM MgCl2; protein storage 20 mM HEPES pH 7.5, 500 mM KCl, 1 mM TCEP, 5% glycerol. Particulars: protein: recombinant;recombinant; tags: 10xHis-MBP removed with TEV;10xHis-MBP removed with TEV; chain copies: 4;2; 23 bp duplex, 3' overhangs 15 nt on both strands before trimming.

The term stoichiometry N denotes a count of units in the complex or per binding partner. Consider Megasphaera NM10-related Cas1 (enzyme), for which the stoichiometry N in data set [1] came out at 2. “Megasphaera NM10-related Cas2 and DEDDh fusion protein (Cas2/DEDDh) (enzyme)”: the stoichiometry N in data set [2] stood at 2.

B1: CryoEM prespacer, PAM-deficient (dsDNA)
DNA 1: ACTCATGATGCACAAGTGGTTGCGCGTGAACCCAGTTG
DNA 2: GCAACCACTTGTGCATCATGAGTGATGAAACCCAGTTG
modifications: phosphorothioate between nt 28 and 29 of each strand
For the molecule B1, the binding result in data set [3] was “binds”.

B2: CryoEM prespacer, TT PAM-containing (dsDNA)
DNA 1: ACTCATGATGCACAAGTGGTTGCGCGTGTTCCCAGTTG
DNA 2: GCAACCACTTGTGCATCATGAGTGATGAAACCCAGTTG
modifications: phosphorothioate between nt 33 and 34 of strand 1 and between nt 28 and 29 of strand 2
As for B2, the binding result in data set [4] is given as “binds”.
